Measured values from patent publication US20100298539A1.
“And” between values parts separate entries of the source, which are not always exact repeats. Equal entries are not always repeated.

The substances below were run against human C5a receptor (C5aR) (human) (UniProt P21730) (assay: dual fMLP-F/α-C5aR-PE flow cytometry on neutrophils).
human C5a receptor (C5aR) (human), sequence (P21730 whole entry): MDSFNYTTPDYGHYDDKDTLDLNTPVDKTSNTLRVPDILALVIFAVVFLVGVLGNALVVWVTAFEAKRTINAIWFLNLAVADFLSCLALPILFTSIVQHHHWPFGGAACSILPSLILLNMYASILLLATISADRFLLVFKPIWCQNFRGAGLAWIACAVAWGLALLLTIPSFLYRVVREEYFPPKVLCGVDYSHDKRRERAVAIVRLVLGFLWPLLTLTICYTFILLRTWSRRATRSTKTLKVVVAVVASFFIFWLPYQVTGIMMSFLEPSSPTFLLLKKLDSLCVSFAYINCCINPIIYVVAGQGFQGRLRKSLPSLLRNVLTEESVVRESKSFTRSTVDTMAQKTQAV

Row | Substance | Dual bind PMN (%)
1 | Chemotaxis Inhibitory Protein of Staphylococcus aureus (CHIPS), wildtype, amino acids 1-121 (from UniProt A6QIG7 29-149) | 112%

What follows are substances tested against human C5a receptor (C5aR) (human) (UniProt P21730) (assay: flow cytometry on U937/C5aR cells, 2H7 detection).

Row | Substance | Binding U937cells C5aR (0.3 µg/ml) % of wt 1-112
2 | Chemotaxis Inhibitory Protein of Staphylococcus aureus (CHIPS), wildtype, amino acids 1-121 (from UniProt A6QIG7 29-149) | 28%

These substances were tested against human C5a receptor (C5aR) (human) (UniProt P21730) (assay: not given).

Row | Substance | IC50 (read off the curve)
3 | Chemotaxis Inhibitory Protein of Staphylococcus aureus (CHIPS), wildtype, amino acids 1-121 (from UniProt A6QIG7 29-149) | 0.07 ng/mL

Each substance was assayed against CD88-N-term peptide ABCF-1 (biotinylated C5aR peptide) (UniProt P21730) (assay: C5aR peptide ELISA, lysate).
CD88-N-term peptide ABCF-1 (biotinylated C5aR peptide), sequence (P21730 7-28 limits assumed): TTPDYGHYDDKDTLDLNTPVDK

Row | Substance | pept-ELISA bindn (%) | Abs 492 nm | Pep. bind. | Pep. bind. Log (ng/ml) | Spec. activity pep/expr (%)
4 | CHIPS E67A (from UniProt A6QIG7 29-149) (other; other documents disagree on this pair) | 52% and 39% | – | – | – | –
5 | CHIPS G33A (from UniProt A6QIG7 29-149) (other; other documents disagree on this pair) | 13% | – | – | – | –
6 | CHIPS G52A (from UniProt A6QIG7 29-149) (other; other documents disagree on this pair) | 19% and 20% | – | – | – | –
7 | CHIPS K69A control (lysate), A6QIG7 29-140 | 15% | 1.41 and 1.39 | 126 ng/mL and 120 ng/mL | 2.1 log ng/ml and 2.08 log ng/ml | 116% and 112%
8 | CHIPS L34A (from UniProt A6QIG7 29-149) (other; other documents disagree on this pair) | 13% and 12% | – | – | – | –
9 | CHIPS L76A (from UniProt A6QIG7 29-149) (other; other documents disagree on this pair) | 1% and 2% | – | – | – | –
10 | CHIPS L90A (from UniProt A6QIG7 29-149) (other; other documents disagree on this pair) | 25% and 24% | – | – | – | –
11 | CHIPS N31A (from UniProt A6QIG7 29-149) (other; other documents disagree on this pair) | 16% and 23% | – | – | – | –
12 | CHIPS N55A (from UniProt A6QIG7 29-149) (other; other documents disagree on this pair) | 8% and 9% | – | – | – | –
13 | CHIPS P35A (from UniProt A6QIG7 29-149) (other; other documents disagree on this pair) | 54% and 68% | – | – | – | –
14 | CHIPS P79A (from UniProt A6QIG7 29-149) (other; other documents disagree on this pair) | 28% and 25% | – | – | – | –
15 | CHIPS Q58A (from UniProt A6QIG7 29-149) (other; other documents disagree on this pair) | 2% and 3% | – | – | – | –
16 | CHIPS S32A (from UniProt A6QIG7 29-149) (other; other documents disagree on this pair) | 15% | – | – | – | –
17 | CHIPS S56A (from UniProt A6QIG7 29-149) (other; other documents disagree on this pair) | 18% and 16% | – | – | – | –
18 | CHIPS S107A (from UniProt A6QIG7 29-149) (other; other documents disagree on this pair) | 11% | – | – | – | –
19 | CHIPS T53A (from UniProt A6QIG7 29-149) (other; other documents disagree on this pair) | 7% | – | – | – | –
20 | CHIPS Y48A (from UniProt A6QIG7 29-149) (other; other documents disagree on this pair) | 86% and 70% | – | – | – | –
21 | CHIPS Y108A (from UniProt A6QIG7 29-149) (other; other documents disagree on this pair) | 1% | – | – | – | –
22 | CHIPSwt control (lysate) (from UniProt A6QIG7 29-149) (other; other documents disagree on this pair) | 21% | 1.48 and 1.41 | 155 ng/mL and 126 ng/mL | 2.19 log ng/ml and 2.1 log ng/ml | 119% and 106%

Each substance was assayed against CD88-N-term peptide ABCF-1 (biotinylated C5aR peptide) (UniProt P21730) (assay: C5aR peptide ELISA).

Row | Substance | specific activity (%)
23 | CHIPS K69A control (lysate), A6QIG7 29-140 | 116%
24 | CHIPS clone 1F8 (Y48H, D83G, L90P), A6QIG7 29-140 | 93%
25 | CHIPS clone 2C9 (K54R, K69R, K100R, K105R), A6QIG7 29-140 | 115%
26 | CHIPS clone 2D5 (K40E, K69A, N111K, G112V), A6QIG7 29-138 | 132%
27 | CHIPS clone 2H5 (K69A, K100R, K101R), A6QIG7 29-140 | 113%
28 | CHIPS clone 3C4 (K69A, G112V), A6QIG7 29-139 | 94%
29 | CHIPS clone 3H1 (G112V) (from UniProt A6QIG7 29-139) (other; other documents disagree on this pair) | 109%
30 | CHIPS clone 4E5 (K69T), A6QIG7 29-140 | 76%
31 | CHIPS clone 5H1 (K50N), A6QIG7 29-140 | 88%
32 | CHIPS clone 6E1 (S104Y), A6QIG7 29-140 | 76%
33 | CHIPS clone 7B3 (N111I) (from UniProt A6QIG7 29-140) (other; other documents disagree on this pair) | 140%
34 | CHIPS clone 7E4 (K40N, K92R), A6QIG7 29-140 | 65%
35 | CHIPSwt control (lysate) (from UniProt A6QIG7 29-149) (other; other documents disagree on this pair) | 106%
